Laboratory results taken from paper PMC11842775.

Target: 6xHis-tagged Mac3-V570R
Assay: in vitro aggregation assay (turbidity, OD320 over time)
Conditions: read at t = 60 min; purified 6xHis-tagged proteins; parent: est. 0.81; read off a plot

Q: With 6xHis-tagged Mac3 V570R as the substance, how does the response read?
A: The response was 0.5 OD320.
